Assay results: patent US20230167164A1 (IMMUNOWAKE, published 2023)
Substitutions are numbered along the chain they refer to. Names may count otherwise. Values belong to the binder of their own block, whether it stands above or below them.

Legend:
human PD-1 [1] = target: T1, human PD-1 (human, UniProt Q15116 25-167, limits assumed); test: affinity measured in PD-L2-Fc format; method not named
T1 construct: nivolumab is called an anti-human PD-1 antibody; also called hPD-1

mouse PD-1 = target: T2, mouse PD-1 (mouse, UniProt Q02242 25-167, limits assumed); test: as above
T2 construct: also called mPD-1
T2 sequence (looked up): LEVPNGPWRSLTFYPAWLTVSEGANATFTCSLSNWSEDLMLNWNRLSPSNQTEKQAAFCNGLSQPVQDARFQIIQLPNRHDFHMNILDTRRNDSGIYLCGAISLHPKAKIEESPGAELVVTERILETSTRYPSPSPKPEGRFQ

[2] = target: T3, human IL-12 receptor complex (human, UniProt P42701 24-662; Q99665 24-862); test: cell-based or functional assay
T3 sequence (Q99665 24-862, chain 2 of 2, other chains not shown): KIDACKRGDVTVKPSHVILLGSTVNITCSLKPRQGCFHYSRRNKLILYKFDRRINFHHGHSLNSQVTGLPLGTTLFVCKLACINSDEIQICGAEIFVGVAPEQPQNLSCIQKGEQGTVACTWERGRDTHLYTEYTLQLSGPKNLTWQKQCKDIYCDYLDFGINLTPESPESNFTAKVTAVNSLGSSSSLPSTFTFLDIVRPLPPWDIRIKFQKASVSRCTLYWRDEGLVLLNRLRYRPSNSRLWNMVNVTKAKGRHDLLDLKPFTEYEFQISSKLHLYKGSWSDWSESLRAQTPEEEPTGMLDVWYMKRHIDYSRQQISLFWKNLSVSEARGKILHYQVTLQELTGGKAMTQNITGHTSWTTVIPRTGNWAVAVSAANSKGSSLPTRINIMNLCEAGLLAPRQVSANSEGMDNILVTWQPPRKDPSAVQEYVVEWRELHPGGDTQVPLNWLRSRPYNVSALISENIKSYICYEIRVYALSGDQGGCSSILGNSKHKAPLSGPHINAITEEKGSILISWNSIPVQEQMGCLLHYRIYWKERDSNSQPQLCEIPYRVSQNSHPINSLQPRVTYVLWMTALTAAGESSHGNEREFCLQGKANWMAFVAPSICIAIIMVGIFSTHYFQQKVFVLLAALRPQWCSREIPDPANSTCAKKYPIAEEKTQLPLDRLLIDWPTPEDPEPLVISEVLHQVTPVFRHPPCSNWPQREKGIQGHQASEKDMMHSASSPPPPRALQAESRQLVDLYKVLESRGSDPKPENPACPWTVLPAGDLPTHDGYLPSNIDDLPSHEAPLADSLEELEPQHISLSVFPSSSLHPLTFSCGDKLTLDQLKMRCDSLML

human CD4 on cells = target: T4, human CD4 on cells (human, UniProt P01730 26-458); test: FACS on CD4+ T cells
T4 construct: whole, on cells; also called CD4+ T cells; HEK-CD4-IFN-γ cells

human PD-1 [3] = target: T1, human PD-1; test: Kd to PD-1 as printed for the construct in Table 19; method not told there; same value as for the parental anti-PD-1 antibody
[4] = target: human PD-1 overexpressed on HEK-Blue reporter cells (human, UniProt Q15116 25-288); test: cell-based or functional assay
Sequence of human PD-1 overexpressed on HEK-Blue reporter cells (Q15116 25-288): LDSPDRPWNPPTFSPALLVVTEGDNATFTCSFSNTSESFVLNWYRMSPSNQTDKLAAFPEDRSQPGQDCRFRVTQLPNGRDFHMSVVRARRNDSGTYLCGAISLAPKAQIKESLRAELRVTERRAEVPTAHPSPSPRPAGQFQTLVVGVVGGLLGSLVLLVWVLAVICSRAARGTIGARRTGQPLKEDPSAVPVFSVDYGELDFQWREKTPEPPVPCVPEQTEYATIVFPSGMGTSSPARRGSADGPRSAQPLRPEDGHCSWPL

[5] = target: T3, human IL-12 receptor complex; test: cell-based or functional assay; remark: listed apart in the source
human PD-1 [6] = target: T1, human PD-1; test: Kd column of Table 18; same value as the antibody in Table 17

T1 sequence (Q15116 25-167 limits assumed): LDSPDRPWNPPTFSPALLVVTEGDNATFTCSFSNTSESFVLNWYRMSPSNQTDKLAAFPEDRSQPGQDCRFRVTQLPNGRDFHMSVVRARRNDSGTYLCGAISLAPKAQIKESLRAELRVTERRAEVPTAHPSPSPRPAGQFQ

- Kd (human PD-1 [1]): 1200 nM
- Kd (mouse PD-1): 980 nM
B1: PD-L2(wt)-Fc (Fc fusion)
chain 1: LFTVTVPKELYIIEHGSNVTLECNFDTGSHVNLGAITASLQKVENDTSPHRERATLLEEQLPLGKASFHIPQVQVRDEGQYQCIIIYGVAWDYKYLTLKVKASYRKINTHILKVPETDEVELTCQATGYPLAEVSWPNVSVPANTSHSRTPEGLYQVTSVLRLKPPPGRNFSCVFWNTHVRELTLASIDLQSQMEPRTHPTDKTHTCPPCPAPEDEGGPSVFLFPPKPKDTLMISRTPEVTCVVVDVSHEDPEVKFNWYVDGVEVHNAKTKPREEQYNSTYRVVSVLTVLHQDWLNGKEYKCKVSNKALPAPIEKTISKAKGQPREPQVYVYPPSREEMTKNQVSLTCLVKGFYPSDIAVEWESNGQPENNYKTTPPVLDEDGSFALVSKLTVDKSRWQQGNVFSCSVMHEALHNHYTQKSLSLSPGK
chain 2: B1 chain 1 with D215K, E216K, Y332L, T347L, N371R, K373M, T375W, E381S, A386F, V388Y
notes: also called None

- IFN-γ release, % of rIL-12, activated CD4+ T cells [2]: 21%
- binding result (human CD4 on cells): no binding
B2: Fab-IL-12(WT)-Fc-CD8 Ab (other)
heavy 1: EVQLQQSGPELVKPGASVKMSCKASGYTFTDYYMKWVKQSHGKSLEWIGHINPNNDDTFYTQKFKGRATLTVDKSSSTAYMQLNSLTSEDSAVYYCVRDDYDGGWFAYWGQGTLVTVSSASTKGPSVFPLAPSSKSTSGGTAALGCLVKDYFPEPVTVSWNSGALTSGVHTFPAVLQSSGLYSLSSVVTVPSSSLGTQTYICNVNHKPSNTKVDKKVEPKSCDKPGSGIWELKKDVYVVELDWYPDAPGEMVVLTCDTPEEDGITWTLDQSSEVLGSGKTLTIQVKEFGDAGQYTCHKGGEVLSHSLLLLHKKEDGIWSTDILKDQKEPKNKTFLRCEAKNYSGRFTCWWLTTISTDLTFSVKSSRGSSDPQGVTCGAATLSAERVRGDNKEYEYSVECQEDSACPAAEESLPIEVMVDAVHKLKYENYTSSFFIRDIIKPDPPKNLQLKPLKNSRQVEVSWEYPDTWSTPHSYFSLTFCVQVQGKSKREKKDRVFTDKTSATVICRKNASISVRAQDRYYSSSWSEWASVPCSGGGGSGGGGSGGGGSGGGGSGRNLPVATPDPGMFPCLHHSQNLLRAVSNMLQKARQTLEFYPCTSEEIDHEDITKDKTSTVEACLPLELTKNESCLNSRETSFITNGSCLASRKTSFMMALCLSSIYEDLKMYQVEFKTMNAKLLMDPKRQIFLDQNMLAVIDELMQALNFNSETVPQKSSLEEPDFYKTKIKLCILLHAFRIRAVTIDRVMSYLNASDKTHTCPPCPAPEDEGGPSVFLFPPKPKDTLMISRTPEVTCVVVDVSHEDPEVKFNWYVDGVEVHNAKTKPREEQYNSTYRVVSVLTVLHQDWLNGKEYKCKVSNKALPAPIEKTISKAKGQPREPQVYVYPPSREEMTKNQVSLTCLVKGFYPSDIAVEWESNGQPENNYKTTPPVLDEDGSFALVSKLTVDKSRWQQGNVFSCSVMHEALHNHYTQKSLSLSPGK
heavy 2: EVQLQQSGPELVKPGASVKMSCKASGYTFTDYYMKWVKQSHGKSLEWIGHINPNNDDTFYTQKFKGRATLTVDKSSSTAYMQLNSLTSEDSAVYYCVRDDYDGGWFAYWGQGTLVTVSSASTKGPSVFPLAPSSKSTSGGTAALGCLVKDYFPEPVTVSWNSGALTSGVHTFPAVLQSSGLYSLSSVVTVPSSSLGTQTYICNVNHKPSNTKVDKKVEPKSCDKTHTCPPCPAPEKKGGPSVFLFPPKPKDTLMISRTPEVTCVVVDVSHEDPEVKFNWYVDGVEVHNAKTKPREEQYNSTYRVVSVLTVLHQDWLNGKEYKCKVSNKALPAPIEKTISKAKGQPREPQVYVLPPSREEMTKNQVSLLCLVKGFYPSDIAVEWESNGQPENRYMTWPPVLDSDGSFFLYSKLTVDKSRWQQGNVFSCSVMHEALHNHYTQKSLSLSPGK
light: DIQMTQTTSSLSASLGDRVTISCRASQDINNYLNWYQQKSDGTIKLLIYYTSRSYSGVPSRFSGSGSGTDYSLTISNRRQEDIATYFCQQGKTLPWTFGGGTKLEIKRTVAAPSVFIFPPSDEQLKSGTASVVCLLNNFYPREAKVQWKVDNALQSGNSQESVTEQDSKDSTYSLSSTLTLSKADYEKHKVYACEVTHQGLSSPVTKSFNRGEC

- IFN-γ release, % of rIL-12, activated CD4+ T cells [2]: 2.1%
- binding result (human CD4 on cells): no binding
B3: Fab-IL-12(E59A)-Fc-CD8 Ab (other)
heavy 1: B2 heavy 1 with E287A
heavy 2: B2 heavy 2
light: B2 light

- IFN-γ release, % of rIL-12, activated CD4+ T cells [2]: 0%
- binding result (human CD4 on cells): no binding
B4: Fab-IL-12(E59A/F60A)-Fc-CD8 Ab (other)
heavy 1: B2 heavy 1 with E287A, F288A
heavy 2: B2 heavy 2
light: B2 light

- IFN-γ release, % of rIL-12, activated CD4+ T cells [2]: 1.2%
- binding result (human CD4 on cells): no binding
B5: Fab-IL-12(F60A)-Fc-CD8 Ab (other)
heavy 1: B2 heavy 1 with F288A
heavy 2: B2 heavy 2
light: B2 light

- Kd (human PD-1 [3]): 130 nM
- IL-12 signal transduction, % of rIL-12, HEK-IL-12-PD-1 (high) [4]: 33%
- IL-12 signal transduction, % of rIL-12, HEK-IL-12-PD-1 (low) [4]: 17%
- IL-12 signal transduction, % of rIL-12, HEK-IL-12 cells [5]: < 0.2%
- Kd (human PD-1 [6]): 130 nM
B6: IL-12(E59A/F60A)/anti-PD-1(D100G) (other)
heavy 1: QVQLVESGGGVVQPGRSLRLDCKASGITFSNSGMHWVRQAPGKGLEWVAVIWYDGSKRYYADSVKGRFTISRDNSKNTLFLQMNSLRAEDTAVYYCATNGDYWGQGTLVTVSSASTKGPSVFPLAPSSKSTSGGTAALGCLVKDYFPEPVTVSWNSGALTSGVHTFPAVLQSSGLYSLSSVVTVPSSSLGTQTYICNVNHKPSNTKVDKKVEPKSCDKPGSGIWELKKDVYVVELDWYPDAPGEMVVLTCDTPEEDGITWTLDQSSEVLGSGKTLTIQVKAAGDAGQYTCHKGGEVLSHSLLLLHKKEDGIWSTDILKDQKEPKNKTFLRCEAKNYSGRFTCWWLTTISTDLTFSVKSSRGSSDPQGVTCGAATLSAERVRGDNKEYEYSVECQEDSACPAAEESLPIEVMVDAVHKLKYENYTSSFFIRDIIKPDPPKNLQLKPLKNSRQVEVSWEYPDTWSTPHSYFSLTFCVQVQGKSKREKKDRVFTDKTSATVICRKNASISVRAQDRYYSSSWSEWASVPCSGGGGSGGGGSGGGGSGGGGSGRNLPVATPDPGMFPCLHHSQNLLRAVSNMLQKARQTLEFYPCTSEEIDHEDITKDKTSTVEACLPLELTKNESCLNSRETSFITNGSCLASRKTSFMMALCLSSIYEDLKMYQVEFKTMNAKLLMDPKRQIFLDQNMLAVIDELMQALNFNSETVPQKSSLEEPDFYKTKIKLCILLHAFRIRAVTIDRVMSYLNASDKTHTCPPCPAPEDEGGPSVFLFPPKPKDTLMISRTPEVTCVVVDVSHEDPEVKFNWYVDGVEVHNAKTKPREEQYNSTYRVVSVLTVLHQDWLNGKEYKCKVSNKALPAPIEKTISKAKGQPREPQVYVYPPSREEMTKNQVSLTCLVKGFYPSDIAVEWESNGQPENNYKTTPPVLDEDGSFALVSKLTVDKSRWQQGNVFSCSVMHEALHNHYTQKSLSLSPGK
heavy 2: QVQLVESGGGVVQPGRSLRLDCKASGITFSNSGMHWVRQAPGKGLEWVAVIWYDGSKRYYADSVKGRFTISRDNSKNTLFLQMNSLRAEDTAVYYCATNGDYWGQGTLVTVSSASTKGPSVFPLAPSSKSTSGGTAALGCLVKDYFPEPVTVSWNSGALTSGVHTFPAVLQSSGLYSLSSVVTVPSSSLGTQTYICNVNHKPSNTKVDKKVEPKSCDKTHTCPPCPAPEKKGGPSVFLFPPKPKDTLMISRTPEVTCVVVDVSHEDPEVKFNWYVDGVEVHNAKTKPREEQYNSTYRVVSVLTVLHQDWLNGKEYKCKVSNKALPAPIEKTISKAKGQPREPQVYVLPPSREEMTKNQVSLLCLVKGFYPSDIAVEWESNGQPENRYMTWPPVLDSDGSFFLYSKLTVDKSRWQQGNVFSCSVMHEALHNHYTQKSLSLSPGK
light: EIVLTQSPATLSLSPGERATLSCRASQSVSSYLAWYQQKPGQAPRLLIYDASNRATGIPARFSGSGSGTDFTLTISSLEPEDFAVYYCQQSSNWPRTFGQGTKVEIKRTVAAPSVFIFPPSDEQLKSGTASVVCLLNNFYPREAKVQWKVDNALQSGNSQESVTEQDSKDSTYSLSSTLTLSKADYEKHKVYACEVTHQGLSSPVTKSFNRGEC

- Kd (human PD-1 [3]): 910 nM
- IL-12 signal transduction, % of rIL-12, HEK-IL-12-PD-1 (high) [4]: 10%
- IL-12 signal transduction, % of rIL-12, HEK-IL-12-PD-1 (low) [4]: 3%
- IL-12 signal transduction, % of rIL-12, HEK-IL-12 cells [5]: < 0.2%
- Kd (human PD-1 [6]): 910 nM
B7: IL-12(E59A/F60A)/anti-PD-1(D100R) (other)
heavy 1: B6 heavy 1 with G100R
heavy 2: B6 heavy 2 with G100R
light: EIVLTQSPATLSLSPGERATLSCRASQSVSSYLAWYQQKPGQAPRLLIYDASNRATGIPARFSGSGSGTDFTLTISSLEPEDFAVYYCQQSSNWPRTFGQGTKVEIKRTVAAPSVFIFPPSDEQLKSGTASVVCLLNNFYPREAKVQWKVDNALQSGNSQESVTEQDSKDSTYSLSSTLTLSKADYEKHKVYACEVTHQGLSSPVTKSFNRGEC

- Kd (human PD-1 [3]): 25 nM
- IL-12 signal transduction, % of rIL-12, HEK-IL-12-PD-1 (high) [4]: 38%
- IL-12 signal transduction, % of rIL-12, HEK-IL-12-PD-1 (low) [4]: 33%
- IL-12 signal transduction, % of rIL-12, HEK-IL-12 cells [5]: < 0.2%
- Kd (human PD-1 [6]): 25 nM
B8: IL-12(E59A/F60A)/anti-PD-1(D100N) (other)
heavy 1: B6 heavy 1 with G100N
heavy 2: B6 heavy 2 with G100N
light: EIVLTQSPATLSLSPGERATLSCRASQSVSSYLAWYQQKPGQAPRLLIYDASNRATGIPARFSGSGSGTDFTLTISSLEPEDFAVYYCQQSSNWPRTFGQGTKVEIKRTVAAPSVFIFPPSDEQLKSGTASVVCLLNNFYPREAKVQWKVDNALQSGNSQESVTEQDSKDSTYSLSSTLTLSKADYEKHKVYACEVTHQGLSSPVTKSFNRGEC
